Experimental data from paper PMC11265280.
pKd: −log10 of the molar value.

How the values were obtained:
[1] = target: soluble murine DPP4-IgG1 (murine) (UniProt P28843); assay: SPR; BIAcore X-100, CM5 chip, room temperature; soluble DPP4-IgG1 immobilised by amine coupling; S1-RBD injected at 0.125-4.0 µM in 0.01 M HEPES, 0.15 M NaCl, 0.5% surfactant P20, 3 mM EDTA, pH 7.4; reference cell with BSA; steady-state affinity model
[2] = target: soluble porcine DPP4-IgG1 (porcine) (UniProt P22411); assay: as above
[3] = target: PHEV spike S1 receptor-binding domain, Fc-tagged; assay: co-immunoprecipitation, quantified band intensity; conditions: 293T cells; n = 3; parent: est. 100; read off a plot
[4] = target: MERS-CoV spike RBD (Middle East respiratory syndrome-related coronavirus) (UniProt K9N5Q8); conditions: cited from earlier work

## monomeric PHEV S1-RBD (SPR analyte) (domain or fragment)
[1]
  pKd: 6.44
[2]
  pKd: 6.76

## murine dipeptidyl peptidase 4, GFP-tagged (from UniProt P28843) T336E
[3]
  percent of parent (% of RBD binding): 100

## porcine dipeptidyl peptidase 4, GFP-tagged (from UniProt P22411) R317A
[3]
  percent of parent (% of RBD binding): 98

## murine dipeptidyl peptidase 4, GFP-tagged (from UniProt P28843) A294T; R295T
[3]
  percent of parent (% of RBD binding): 100

## murine dipeptidyl peptidase 4, GFP-tagged (from UniProt P28843) A294E; R295E
[3]
  percent of parent (% of RBD binding): 95

## DPP4 (from UniProt P27487)
[4]
  pKd: 7.77

## porcine dipeptidyl peptidase 4, GFP-tagged (from UniProt P22411) Q344A
[3]
  percent of parent (% of RBD binding): 130

## porcine dipeptidyl peptidase 4, GFP-tagged (from UniProt P22411) N321Q
[3]
  percent of parent (% of RBD binding): 170

## murine dipeptidyl peptidase 4, GFP-tagged (from UniProt P28843) N321Q
[3]
  percent of parent (% of RBD binding): 250

## murine dipeptidyl peptidase 4, GFP-tagged (from UniProt P28843) Q344A
[3]
  percent of parent (% of RBD binding): 120

## porcine dipeptidyl peptidase 4, GFP-tagged (from UniProt P22411) L294T; I295T
[3]
  percent of parent (% of RBD binding): 82

## porcine dipeptidyl peptidase 4, GFP-tagged (from UniProt P22411) N229Q
[3]
  percent of parent (% of RBD binding): 190

## murine dipeptidyl peptidase 4, GFP-tagged (from UniProt P28843) K267A
[3]
  percent of parent (% of RBD binding): 110

## murine dipeptidyl peptidase 4, GFP-tagged (from UniProt P28843) N229Q
[3]
  percent of parent (% of RBD binding): 350

## murine dipeptidyl peptidase 4, GFP-tagged (from UniProt P28843) R317A
[3]
  percent of parent (% of RBD binding): 92

## porcine dipeptidyl peptidase 4, GFP-tagged (from UniProt P22411) L294E; I295E
[3]
  percent of parent (% of RBD binding): 110

## porcine dipeptidyl peptidase 4, GFP-tagged (from UniProt P22411) R336E
[3]
  percent of parent (% of RBD binding): 120

## porcine dipeptidyl peptidase 4, GFP-tagged (from UniProt P22411) K267A
[3]
  percent of parent (% of RBD binding): 84
